From patent US20230357348A1 (AstraZeneca / MedImmune, published 2023) come the findings set out here.

Experiment [1] addresses human GLP-1 receptor (hGLP-1R) (human, UniProt P43220 24-463). In words: cell-based or functional assay.
Experiment [2] concerns the target human glucagon receptor (hGCGR) (human, UniProt P47871 26-477). In words: cell-based or functional assay.

Starred links: 1 amine or outer side, 2 acyl side, 3 side chain; linkers in the order of their positions; H or OH if unused. Non-standard residues stand in square brackets, D forms with d. Groups on a side chain read outwards from the residue. No end group written: not given here. *: point of attachment. C20 diacid = O=C(O)CCCCCCCCCCCCCCCCCCC(=O)*; C18 diacid = O=C(O)CCCCCCCCCCCCCCCCC(=O)*; γGlu = O=C(O)[C@H](CCC(=O)[*:2])N[*:1]; αMeF = C[C@](N)(Cc1ccccc1)C(=O)O; AEEA = NCCOCCOCC(=O)O; Aib = CC(C)(N)C(=O)O

Chain of human glucagon receptor (hGCGR) (P47871 26-477): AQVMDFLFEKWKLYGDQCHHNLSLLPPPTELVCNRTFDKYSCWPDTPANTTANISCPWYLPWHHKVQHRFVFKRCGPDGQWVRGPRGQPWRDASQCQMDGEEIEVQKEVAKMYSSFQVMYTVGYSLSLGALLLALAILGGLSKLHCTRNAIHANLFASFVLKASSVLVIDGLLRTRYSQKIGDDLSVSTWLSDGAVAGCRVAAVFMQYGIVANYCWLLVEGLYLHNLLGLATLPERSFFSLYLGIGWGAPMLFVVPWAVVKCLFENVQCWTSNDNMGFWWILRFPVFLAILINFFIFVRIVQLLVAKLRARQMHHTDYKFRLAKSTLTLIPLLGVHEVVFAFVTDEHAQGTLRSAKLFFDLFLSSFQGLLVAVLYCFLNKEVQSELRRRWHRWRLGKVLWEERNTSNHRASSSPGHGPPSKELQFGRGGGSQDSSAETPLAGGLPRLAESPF

B1: Peptide 501 (peptide)
peptide: H[Aib]QGTFTSDVSK[αMeF]LDTK([AEEA-AEEA-γGlu-C18 diacid])RARDFVQWLLR[Aib]A-OH
modifications: N-terminus assumed
SMILES: CC(C)C[C@H](NC(=O)[C@H](Cc1c[nH]c2ccccc12)NC(=O)[C@H](CCC(N)=O)NC(=O)[C@@H](NC(=O)[C@H](Cc1ccccc1)NC(=O)[C@H](CC(=O)O)NC(=O)[C@H](CCCNC(=N)N)NC(=O)[C@H](C)NC(=O)[C@H](CCCNC(=N)N)NC(=O)[C@H](CCCCNC(=O)COCCOCCNC(=O)COCCOCCNC(=O)CC[C@H](NC(=O)CCCCCCCCCCCCCCCCC(=O)O)C(=O)O)NC(=O)[C@@H](NC(=O)[C@H](CC(=O)O)NC(=O)[C@H](CC(C)C)NC(=O)[C@](C)(Cc1ccccc1)NC(=O)[C@H](CCCCN)NC(=O)[C@H](CO)NC(=O)[C@@H](NC(=O)[C@H](CC(=O)O)NC(=O)[C@H](CO)NC(=O)[C@@H](NC(=O)[C@H](Cc1ccccc1)NC(=O)[C@@H](NC(=O)CNC(=O)[C@H](CCC(N)=O)NC(=O)C(C)(C)NC(=O)[C@@H](N)Cc1c[nH]cn1)[C@@H](C)O)[C@@H](C)O)C(C)C)[C@@H](C)O)C(C)C)C(=O)N[C@@H](CC(C)C)C(=O)N[C@@H](CCCNC(=N)N)C(=O)NC(C)(C)C(=O)N[C@@H](C)C(=O)O
As for B1, the “hGLP-1R EC50 (pM)” value in experiment [1] came out at 26.5 pM. Further, in experiment [2], the “hGluc-R EC50 (pM)” value worked out at 75.6 pM.

B2: Peptide 498 (peptide)
peptide: H[Aib]QGTFTSDVSK[αMeF]LDTK([AEEA-AEEA-γGlu-C20 diacid])RAQDFVRWLLR[Aib]A-OH
modifications: N-terminus assumed
SMILES: CC(C)C[C@H](NC(=O)[C@H](Cc1c[nH]c2ccccc12)NC(=O)[C@H](CCCNC(=N)N)NC(=O)[C@@H](NC(=O)[C@H](Cc1ccccc1)NC(=O)[C@H](CC(=O)O)NC(=O)[C@H](CCC(N)=O)NC(=O)[C@H](C)NC(=O)[C@H](CCCNC(=N)N)NC(=O)[C@H](CCCCNC(=O)COCCOCCNC(=O)COCCOCCNC(=O)CC[C@H](NC(=O)CCCCCCCCCCCCCCCCCCC(=O)O)C(=O)O)NC(=O)[C@@H](NC(=O)[C@H](CC(=O)O)NC(=O)[C@H](CC(C)C)NC(=O)[C@](C)(Cc1ccccc1)NC(=O)[C@H](CCCCN)NC(=O)[C@H](CO)NC(=O)[C@@H](NC(=O)[C@H](CC(=O)O)NC(=O)[C@H](CO)NC(=O)[C@@H](NC(=O)[C@H](Cc1ccccc1)NC(=O)[C@@H](NC(=O)CNC(=O)[C@H](CCC(N)=O)NC(=O)C(C)(C)NC(=O)[C@@H](N)Cc1c[nH]cn1)[C@@H](C)O)[C@@H](C)O)C(C)C)[C@@H](C)O)C(C)C)C(=O)N[C@@H](CC(C)C)C(=O)N[C@@H](CCCNC(=N)N)C(=O)NC(C)(C)C(=O)N[C@@H](C)C(=O)O
As to B2, the “hGLP-1R EC50 (pM)” value in experiment [1] was 156 pM. In addition, the “hGluc-R EC50 (pM)” value in experiment [2] is 170 pM.

B3: Peptide 496 (peptide)
peptide: H[Aib]QGTFTSDVSK[αMeF]LDTK([AEEA-AEEA-γGlu-C20 diacid])RAQDFVRWLLR[Aib]K-NH2
modifications: N-terminus assumed
SMILES: CC(C)C[C@H](NC(=O)[C@H](Cc1c[nH]c2ccccc12)NC(=O)[C@H](CCCNC(=N)N)NC(=O)[C@@H](NC(=O)[C@H](Cc1ccccc1)NC(=O)[C@H](CC(=O)O)NC(=O)[C@H](CCC(N)=O)NC(=O)[C@H](C)NC(=O)[C@H](CCCNC(=N)N)NC(=O)[C@H](CCCCNC(=O)COCCOCCNC(=O)COCCOCCNC(=O)CC[C@H](NC(=O)CCCCCCCCCCCCCCCCCCC(=O)O)C(=O)O)NC(=O)[C@@H](NC(=O)[C@H](CC(=O)O)NC(=O)[C@H](CC(C)C)NC(=O)[C@](C)(Cc1ccccc1)NC(=O)[C@H](CCCCN)NC(=O)[C@H](CO)NC(=O)[C@@H](NC(=O)[C@H](CC(=O)O)NC(=O)[C@H](CO)NC(=O)[C@@H](NC(=O)[C@H](Cc1ccccc1)NC(=O)[C@@H](NC(=O)CNC(=O)[C@H](CCC(N)=O)NC(=O)C(C)(C)NC(=O)[C@@H](N)Cc1c[nH]cn1)[C@@H](C)O)[C@@H](C)O)C(C)C)[C@@H](C)O)C(C)C)C(=O)N[C@@H](CC(C)C)C(=O)N[C@@H](CCCNC(=N)N)C(=O)NC(C)(C)C(=O)N[C@@H](CCCCN)C(N)=O
On to B3, for which the “hGLP-1R EC50 (pM)” value in experiment [1] came out at 64.9 pM. In addition, in experiment [2], the “hGluc-R EC50 (pM)” value came to 482 pM.

B4: Peptide 502 (peptide)
peptide: H[Aib]QGTFTSDVSK[αMeF]LDTK([AEEA-AEEA-γGlu-C20 diacid])RARDFVQWLLR[Aib]A-OH
modifications: N-terminus assumed
SMILES: CC(C)C[C@H](NC(=O)[C@H](Cc1c[nH]c2ccccc12)NC(=O)[C@H](CCC(N)=O)NC(=O)[C@@H](NC(=O)[C@H](Cc1ccccc1)NC(=O)[C@H](CC(=O)O)NC(=O)[C@H](CCCNC(=N)N)NC(=O)[C@H](C)NC(=O)[C@H](CCCNC(=N)N)NC(=O)[C@H](CCCCNC(=O)COCCOCCNC(=O)COCCOCCNC(=O)CC[C@H](NC(=O)CCCCCCCCCCCCCCCCCCC(=O)O)C(=O)O)NC(=O)[C@@H](NC(=O)[C@H](CC(=O)O)NC(=O)[C@H](CC(C)C)NC(=O)[C@](C)(Cc1ccccc1)NC(=O)[C@H](CCCCN)NC(=O)[C@H](CO)NC(=O)[C@@H](NC(=O)[C@H](CC(=O)O)NC(=O)[C@H](CO)NC(=O)[C@@H](NC(=O)[C@H](Cc1ccccc1)NC(=O)[C@@H](NC(=O)CNC(=O)[C@H](CCC(N)=O)NC(=O)C(C)(C)NC(=O)[C@@H](N)Cc1c[nH]cn1)[C@@H](C)O)[C@@H](C)O)C(C)C)[C@@H](C)O)C(C)C)C(=O)N[C@@H](CC(C)C)C(=O)N[C@@H](CCCNC(=N)N)C(=O)NC(C)(C)C(=O)N[C@@H](C)C(=O)O
For B4, the “hGLP-1R EC50 (pM)” value in experiment [1] stood at 82.1 pM. In addition, the “hGluc-R EC50 (pM)” value in experiment [2] came out at 175 pM.

B5: Peptide 503 (peptide)
peptide: H[Aib]QGTFTSDVSK[αMeF]LDTK([AEEA-AEEA-γGlu-C20 diacid])RAQDFVRWLLE[Aib]K-OH
In the case of B5, in experiment [1], the “hGLP-1R EC50 (pM)” value came to 81.2 pM. For the same molecule, the “hGluc-R EC50 (pM)” value in experiment [2] amounted to 84.9 pM.

B6: Peptide 500 (peptide)
peptide: H[Aib]QGTFTSDVSK[αMeF]LDTK([AEEA-AEEA-γGlu-C20 diacid])RAQDFVQWLLR[Aib]A-OH
modifications: N-terminus assumed
SMILES: CC(C)C[C@H](NC(=O)[C@H](Cc1c[nH]c2ccccc12)NC(=O)[C@H](CCC(N)=O)NC(=O)[C@@H](NC(=O)[C@H](Cc1ccccc1)NC(=O)[C@H](CC(=O)O)NC(=O)[C@H](CCC(N)=O)NC(=O)[C@H](C)NC(=O)[C@H](CCCNC(=N)N)NC(=O)[C@H](CCCCNC(=O)COCCOCCNC(=O)COCCOCCNC(=O)CC[C@H](NC(=O)CCCCCCCCCCCCCCCCCCC(=O)O)C(=O)O)NC(=O)[C@@H](NC(=O)[C@H](CC(=O)O)NC(=O)[C@H](CC(C)C)NC(=O)[C@](C)(Cc1ccccc1)NC(=O)[C@H](CCCCN)NC(=O)[C@H](CO)NC(=O)[C@@H](NC(=O)[C@H](CC(=O)O)NC(=O)[C@H](CO)NC(=O)[C@@H](NC(=O)[C@H](Cc1ccccc1)NC(=O)[C@@H](NC(=O)CNC(=O)[C@H](CCC(N)=O)NC(=O)C(C)(C)NC(=O)[C@@H](N)Cc1c[nH]cn1)[C@@H](C)O)[C@@H](C)O)C(C)C)[C@@H](C)O)C(C)C)C(=O)N[C@@H](CC(C)C)C(=O)N[C@@H](CCCNC(=N)N)C(=O)NC(C)(C)C(=O)N[C@@H](C)C(=O)O
Take B6: the “hGLP-1R EC50 (pM)” value in experiment [1] turned out to be 102 pM. Moreover, the “hGluc-R EC50 (pM)” value in experiment [2] was found to be 101 pM.

B7: Peptide 499 (peptide)
peptide: H[Aib]QGTFTSDVSK[αMeF]LDTK([AEEA-AEEA-γGlu-C18 diacid])RAQDFVQWLLR[Aib]A-OH
modifications: N-terminus assumed
SMILES: CC(C)C[C@H](NC(=O)[C@H](Cc1c[nH]c2ccccc12)NC(=O)[C@H](CCC(N)=O)NC(=O)[C@@H](NC(=O)[C@H](Cc1ccccc1)NC(=O)[C@H](CC(=O)O)NC(=O)[C@H](CCC(N)=O)NC(=O)[C@H](C)NC(=O)[C@H](CCCNC(=N)N)NC(=O)[C@H](CCCCNC(=O)COCCOCCNC(=O)COCCOCCNC(=O)CC[C@H](NC(=O)CCCCCCCCCCCCCCCCC(=O)O)C(=O)O)NC(=O)[C@@H](NC(=O)[C@H](CC(=O)O)NC(=O)[C@H](CC(C)C)NC(=O)[C@](C)(Cc1ccccc1)NC(=O)[C@H](CCCCN)NC(=O)[C@H](CO)NC(=O)[C@@H](NC(=O)[C@H](CC(=O)O)NC(=O)[C@H](CO)NC(=O)[C@@H](NC(=O)[C@H](Cc1ccccc1)NC(=O)[C@@H](NC(=O)CNC(=O)[C@H](CCC(N)=O)NC(=O)C(C)(C)NC(=O)[C@@H](N)Cc1c[nH]cn1)[C@@H](C)O)[C@@H](C)O)C(C)C)[C@@H](C)O)C(C)C)C(=O)N[C@@H](CC(C)C)C(=O)N[C@@H](CCCNC(=N)N)C(=O)NC(C)(C)C(=O)N[C@@H](C)C(=O)O
With B7, the “hGLP-1R EC50 (pM)” value in experiment [1] worked out at 40.6 pM. In addition, the “hGluc-R EC50 (pM)” value in experiment [2] turned out to be 78.8 pM.

B8: Peptide 497 (peptide)
peptide: H[Aib]QGTFTSDVSK[αMeF]LDTK([AEEA-AEEA-γGlu-C18 diacid])RAQDFVRWLLR[Aib]A-OH
modifications: N-terminus assumed
SMILES: CC(C)C[C@H](NC(=O)[C@H](Cc1c[nH]c2ccccc12)NC(=O)[C@H](CCCNC(=N)N)NC(=O)[C@@H](NC(=O)[C@H](Cc1ccccc1)NC(=O)[C@H](CC(=O)O)NC(=O)[C@H](CCC(N)=O)NC(=O)[C@H](C)NC(=O)[C@H](CCCNC(=N)N)NC(=O)[C@H](CCCCNC(=O)COCCOCCNC(=O)COCCOCCNC(=O)CC[C@H](NC(=O)CCCCCCCCCCCCCCCCC(=O)O)C(=O)O)NC(=O)[C@@H](NC(=O)[C@H](CC(=O)O)NC(=O)[C@H](CC(C)C)NC(=O)[C@](C)(Cc1ccccc1)NC(=O)[C@H](CCCCN)NC(=O)[C@H](CO)NC(=O)[C@@H](NC(=O)[C@H](CC(=O)O)NC(=O)[C@H](CO)NC(=O)[C@@H](NC(=O)[C@H](Cc1ccccc1)NC(=O)[C@@H](NC(=O)CNC(=O)[C@H](CCC(N)=O)NC(=O)C(C)(C)NC(=O)[C@@H](N)Cc1c[nH]cn1)[C@@H](C)O)[C@@H](C)O)C(C)C)[C@@H](C)O)C(C)C)C(=O)N[C@@H](CC(C)C)C(=O)N[C@@H](CCCNC(=N)N)C(=O)NC(C)(C)C(=O)N[C@@H](C)C(=O)O
As to B8, the “hGLP-1R EC50 (pM)” value in experiment [1] came out at 37.4 pM. For the same molecule, in experiment [2], the “hGluc-R EC50 (pM)” value was 118 pM.
